In article PMC9722767:

system: T1, MsmR1 (Paenibacillus polymyxa SC2-M1 (SC2 derivative)), ORF:0fff1571; test: EMSA; details: Chemiluminescent EMSA kit (Beyotime); labeled probe about 0.4 uM, competitor about 4 uM, protein gradient; buffer, salt, pH and temperature not stated
T1 sequence: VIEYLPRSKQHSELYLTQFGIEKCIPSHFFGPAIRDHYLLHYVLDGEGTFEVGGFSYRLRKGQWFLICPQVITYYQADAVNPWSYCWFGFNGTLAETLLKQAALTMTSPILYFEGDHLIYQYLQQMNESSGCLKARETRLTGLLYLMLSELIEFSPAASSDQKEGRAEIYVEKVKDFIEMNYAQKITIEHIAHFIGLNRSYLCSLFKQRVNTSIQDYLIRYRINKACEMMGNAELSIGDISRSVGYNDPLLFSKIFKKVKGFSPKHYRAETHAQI

Row | Sequence | binding
1 | CAGCAACGCACCTCAAGAGATTGCAGGTGTGAAGGTAGACAAAGTACTGGACTACTCGCAAGGCTTGGACGGACTTCCGCAGGAAAACGTACTCAAGTTTTTATTGGAGGACGGTTCTTGGTTCTGCCTGCGTCCTTCGGGCACAGAGCCTAAAATCAAAGTATACTTTGCAGTACGTGGTTCCTC (double strand) [PPSC2_23180 upstream fragment] | binds
2 | ATATGATTTCTGTAGAACCTACTGCTATATTGTTGGATCTTATCAAGCTTTACACCATATGAACTTAGTTGACGCCTGCTACATAAAGATTCTTCTAAGTGCCTTTTTGGTGTGGATCTCTGATGATTATTATCTAAGAGAGGGGTTATTTTTCCCAA (double strand) [msmR1 promoter] | binds
3 | CGGAACAAATGGATCTTCGCAAAGAATACCTTCAAATCTTTCGAGGCTCTATCAAAAGCATACTTTTGAATGCTACGATTTATGATCCGAATGGAGATGATGTTACTCCTGAAAAATTAAGAAAAGAACAGGCTCAAATCGTTAAGCCATGAATTTAATTTTGTCT (double strand) [ydfp upstream fragment] | binds
4 | ACCATTTCCCGGGCAATCGGCTGCCGGGTGCGAATGGAATCGCCCAAGTCCCCTCGTGCCAGTTCACTTAGATAGGTCCCATATTGCTGTAGCCACGGCTTATCCAGCCCTAATTGCTCACGCAGCGCCTGTTTGGACTGTTCCGTGGCCTTGTCCCCGAGTATCGTTTCTGCCGGATCACCGGGAATAGCATGAATAATCGAAAACACGATAAGCGTCATCCCCA (double strand) [oppC3 upstream fragment] | binds
5 | CAGAGGAAATGCATGTCCGTATTATCGGAGACAACACGATTTCCCGCAAAAATCATGCGGTCATTGTGTATGATCCGAAGAAACGCAACTTTTACTTGCTGCCAGGCGATTCGTCAGGCTTGGCGTATCACAATAACGAGGCGGTATATTCACCAGTGGAGCTGGCTGCTTATGACGTGATTCAGCTCGGGCGCAGCAAATTTATCTTTATTCCGCTGTGCGGCGCTCATTTCGAGTGGGA (double strand) [pppL upstream fragment] | binds
6 | TGATCTGGTAACACCGAACTTATTCGAGGCTTCACAGCTGGCGAAGAAAGGACCGATCACGACACTGGAGCAGATGCAGGAAGCGGCTGCTATTATCCACGAGCGTGGTGCTAAGCATGTGCTGATCAAGGACCGTGGCAAAATTCGCGCAGGTAAAGCGATGGATCTGCTGTATGACGGAATCACTTTTGACTGGTTTGAAGCGGATGTTGTACAAACCAACTTTACCCACGGTGCAGGCTGTACCACTTCGGCTGCGGTAACGGCTGGTTTGGCACAAGGGCTGACTGTAC (double strand) [pepF upstream fragment] | binds
7 | GGACGAATCGCACATGAGGCTTTCCCCAACAAACGTGACAGTTTTAGAGCCTTGGGCAATTATGTAAAGAGAGGGCATGTTGAGGGTATGCGTCGGTTTCGACTCCGCGGATGCGCGCCTGAAACAAAGCTCTGGAATCGCTGTTTGGTGTAAACCATCCTTAGGCGTATGCCGTGCTATTTGCTTAGCTAACTCCGTAATGAGTTGGTTCAAACTTGTTCACCAATCCTTTTTCATTTAATCTGATATGAATATTGTAATTCAAACCGGACAGGAATAGGCAAGGAACGCGTATGAAT (double strand) [sdr3 upstream fragment] | binds
8 | CCGATTCATCTCATTTACGCATGGATATGTTGAGAAAAAGGAAATGCTCATAGCTAGAAAACTTTATACAATGAAAGAGAAATAAGCACTGTGAAATTCGACTTTTGATCATGGATTTCATATAATGTGAATTGCTTAAATTAGAGATTTAAC (double strand) [sucA upstream fragment] | binds
